Measured values published in patent US9951373B2, “Oplophorus-derived luciferases, novel coelenterazine substrates, and methods of use” (Promega Corporation, priority 2010, dated 2018).

Key:
HEK293 cells = test: Luminescence of OgLuc variants expressed in HEK293 cells; type: cell-based, human
Protocol: (§1) The PCR library in the pF4Ag-based non-fusion background was screened for additional variants with increased luminescence compared to 9B8 opt+K33N+170G (SEQ ID NOs: 68 and 69). Selected variants were then assayed in HEK293 and NIH3T3 cells. For each cell type, 15,000 cells were plated and grown overnight at 37° C. The next day, the cells were transfected as described in Example 25 with 10 ng pGL4.13 (Promega Corp.) as a transfection control and 100 ng of the OgLuc test DNA. The media was removed, and the cells were lysed with 100 μL of lysis buffer as described in Example 25 except the lysis buffer contained 100 mM MES pH 6.0 instead of HEPES, and luminescence measured using a GLOMAX® Luminometer.
(§2) Based on the above data, further combination variants were designed and generated (see Table 10) in the context of the pF4Ag-based non-fusion vector background without the 170G. The variants were analyzed in E. coli, HEK293 and NIH3T3 cells as described above and compared to 9B8 opt+K33N. The variants were also examined for luminescence with native coelenterazine.
(§3) The brightness of the variants expressed in HEK293 and NIH3T3 cells was measured as described previously. The luminescence of the variants was normalized to the luminescence generated by 9B8 opt (Table 27).

[1] = Luminescence of 9B8 opt+K33N derived variants in E. coli; type: biochemical
Protocol: Luminescence generated from the lysates was measured using the novel PBI-3939 and native coelenterazine as substrates. The relative specificity of the variants for PBI-3939 and native coelenterazine was calculated as described previously.
A new OgLuc library was created using 9B8opt+K33N as a starting template. The random library was created using DIVERSIFY® PCR Random Mutagenesis Kit (ClonTech; Catalog #630703). Condition 5 (as listed in the user manual) was used to generate additional variants, and the average mutation rate was calculated to be 2.6 mutations per gene by compiling sequence data from 83 randomly selected clones. This PCR library was cloned into the pF4Ag-based, non-fusion vector background described previously and the sandwich background, i.e., Id-OgLuc-HT7 (described in Example 45). Variants in the pF4Ag-base non-fusion vector background are designated with (NF). Variants in the sandwich vector background are designated with (F). In order to clone the PCR product into both vectors, an amino acid, i.e., a glycine, was appended to the variant sequence in pF4Ag, generating a new position 170 in the OgLuc variant (“170G”). The 170G is present in the sandwich construct, but in this case is considered part of the linker between OgLuc and HT7. For each library, 4,400 E. coli clones were assayed as described previously with the following exceptions. […] The assay buffer contained 100 mM MES pH 6.0 instead of HEPES, and 35 mM thiourea. The assay volumes were as follows: 10 μL cells, 40 μL, lysis buffer, and 50 μL, assay buffer.
E. coli lysates containing the variants were prepared and analyzed as described previously. Luminescence generated from the lysates was measured using the novel PBI-3939 and native coelenterazine as substrates. The luminescence of the variants was normalized to the luminescence generated by 9B8 opt (Table 12). The relative specificity of the variants for PBI-3939 and native coelenterazine was calculated by dividing the luminescence of the variants using PBI-3939 as a substrate with the luminescence of the variants using native coelenterazine as a substrate (Table 12).

[2] = Km of L27V reversion variants, PBI-3939; type: biochemical
Protocol: (§4) Relative activities <1 indicate the reversion is detrimental compared to the residue at that site in the L27V variant. Relative activities >1 indicate the reversion is favorable for activity compared to the residue at that site in the L27V variant. Some additional data on these mutants indicated the following: 166K, 54F, 54A and L27V were tested for thermal stability. The T1/2 60° C. for 166K, 54F, and 54A were 87, 74, and 33%, respectively, indicating these substitutions cause a reduction in thermal stability. […] This indicates higher substrate affinity for L27V, particularly for the position 54 substitutions.

NIH3T3 cells [3] = test: Luminescence of OgLuc variants expressed in NIH3T3 cells; type: cell-based
Protocol: as §1, §2, §3

NIH3T3 cells [4] = test: Luminescence in sandwich background, NIH3T3 cells; type: cell-based; details: non-sandwich versus sandwich
Protocol: The PCR library in the Id-OgLuc-HT7 sandwich background was screened for additional variants with increased luminescence compared to 9B8 opt+K33N in sandwich background. Selected variants were then assayed in HEK293 and NIH3T3 cells. […] 1F7 (F) (SEQ ID NOs: 84 and 85) and 15H1 (F) (SEQ ID NOs: 86 and 87) had at least 1.3 fold-increase in luminescence in E. coli. 1F7 (F) was brighter than 9B8 opt+K33N in the sandwich background in HEK293 and NIH3T3 cells.
The variants 9B8 opt+K33N+T39T+K43R+Y68D (“V2”; SEQ ID NOs: 92 and 93), 9B8 opt+K33N+L27V+K43R+Y68D (SEQ ID NOs: 339 and 340), 9B8 opt+K33N+L27V+T39T+K43R+S66N (SEQ ID NOs: 341 and 342), and 9B8 opt+K33N+L27V+T39T+K43R+Y68D (“L27V”; SEQ ID NOs: 88 and 89) were subcloned into the Id-OgLuc-HT7 sandwich background as described above and assayed in HEK293 and NIH3T3 cells as described above. The luminescence generated by the sandwiched variants were compared to the luminescence generated by the […] sandwich (SEQ ID NOs: 59 and 60) (Table 38). The L27V sandwich (SEQ ID NOs: 90 and 91) and V2 sandwich (SEQ ID NOs: 94 and 95) had at least 1.3× fold-increase in luminescence in HEK293 and NIH3T3 cells.
The sandwich and non-sandwich versions of the variants V2, 9B8 opt+K33N+L27V+K43R+Y68D, 9B8 opt+K33N+L27V+T39T+K43R+S66N, and L27V were assayed in HEK293 and NIH3T3 cells as described in Example 37. The luminescence generated by the non-sandwiched variants was compared to the luminescence generated by the sandwiched variants (Table 39).

[5] = Km of L27V reversion variants, native coelenterazine; type: biochemical
Protocol: as §4

[6] = relative specificity for PBI-3939 compared to native coelenterazine

B1: L27V: 9B8 opt+K33N variant with L27V, T39T, K43R, Y68D (SEQ ID NO: 89) (protein)
chain: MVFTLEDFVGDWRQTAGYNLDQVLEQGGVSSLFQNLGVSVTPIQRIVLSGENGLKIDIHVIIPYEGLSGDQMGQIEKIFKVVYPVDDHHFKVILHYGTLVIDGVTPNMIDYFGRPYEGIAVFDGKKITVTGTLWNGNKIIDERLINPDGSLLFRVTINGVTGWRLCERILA
- luminescence normalized to 9B8 opt, HEK293 (HEK293 cells; PBI-3939): 1.6
- Fold over 9B8 opt + K33N, HEK293 (HEK293 cells; luminescence, PBI-3939): 0.8
- Fold over Native Coelenterazine, HEK293 (HEK293 cells; [6]): 97
- Fold over coelenterazine ([1]; luminescence with PBI-3939 divided by luminescence with native coelenterazine, bacterial lysates): 110
- Fold over 9B8 ([1]; luminescence with PBI-3939 normalized to 9B8 opt, bacterial lysates): 1.8
- Fold over Native Coelenterazine, E. coli [1, 6]: 85.2
- Km [2]: 18 µM
- luminescence normalized to 9B8 opt, NIH3T3 (NIH3T3 cells [3]; PBI-3939): 1.6
- Fold over 9B8 opt + K33N, NIH3T3 (NIH3T3 cells [3]; luminescence, PBI-3939): 0.7
- Fold over Native Coelenterazine, NIH3T3 (NIH3T3 cells [3]; [6]): 85
- Fold-decrease in luminescence in the presence of sandwich background, NIH 3T3 cells (NIH3T3 cells [4]): 18
- Km [5]: 16 µM
